Source: publication PMC4498601, “Two high-mobility group box domains act together to underwind and kink DNA”

Biological target: T1, HMGB1 box A (Rattus norvegicus (rat), UniProt P63159 8-81)
T1 sequence: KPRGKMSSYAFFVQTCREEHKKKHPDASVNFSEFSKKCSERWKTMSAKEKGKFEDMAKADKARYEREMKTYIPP
Test: X-ray crystallography; 2.0 A; 40 mM MgCl2, 50 mM sodium cacodylate pH 6.0, MPD; two box A per kinked duplex, one further duplex almost unbound; EMSA: 0.33x TBE (30 mM Tris-borate, 0.66 mM EDTA), 3% glycerol, 30 min incubation (temperature not stated), 6% native PAGE at 4 C; crystal complex: 1.6 mM protein, 0.8 mM DNA, about 1 h at 4 C
Details: protein: recombinant; tags: GST tag removed by thrombin; chain copies: 2; blunt; self-complementary decamer, 2 copies of the strand

B1: d(ATATCGATAT)2 (dsDNA)
DNA 1: ATATCGATAT
DNA 2: ATATCGATAT
- binding result: binds
